Reference: US20030211076A1, “Compositions and methods for treatment of proliferative disorders” (priority 2003, published 2003)

Tests used:
lysyl oxidase (LO) = target: T1, lysyl oxidase (LO) (Bos taurus, UniProt P33072); experiment: LO-dependent H2O2 release, horseradish peroxidase-coupled fluorescence assay (substrate potential for LO); format: biochemical
T1 construct: per mature LO molecule (32 kD); from tissue
T1 sequence (P33072 170-418): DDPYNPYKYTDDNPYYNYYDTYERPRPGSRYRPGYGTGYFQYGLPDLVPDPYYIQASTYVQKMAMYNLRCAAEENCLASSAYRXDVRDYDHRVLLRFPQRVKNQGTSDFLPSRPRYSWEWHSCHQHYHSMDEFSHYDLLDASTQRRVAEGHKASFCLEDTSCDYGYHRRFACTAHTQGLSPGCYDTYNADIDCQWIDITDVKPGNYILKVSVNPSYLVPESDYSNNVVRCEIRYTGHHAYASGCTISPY
Procedure: The oxidation of a primary amine substrate by LO yields stoichiometric amounts of the corresponding aldehyde, hydrogen peroxide and ammonia, as shown: RCH2NH2+O2+H2O→RCHO+H2O2+NH3 (Kagan, 1986). To assess the substrate potential of FGF2, LO-dependent H2O2 release was monitored in assays using FGF2 as the sole substrate, using both the optimum temperature for LO activity of 55° C. and the physiological temperature of 37° C. (Trackman et al., 1981).
LO reaction with FGF2 as a substrate was assessed by a horseradish peroxidase-coupled fluorescence assay for H2O2 production. Reaction mixtures contained 0.25 mg of sodium homovanillate(HVA), 40 μg of HRP, and FGF2 at doses as indicated below in 0.05 M sodium borate buffer, pH 8.2, in a final volume of 2 ml. Assays were initiated by the addition of LO to reaction mixtures. H2O2 release was continuously monitored at excitation and emission wavelengths of 315 and 425 nm, respectively, at a constant temperature of 55° C. or 37° C., as specified, in the thermostatted cuvette chamber of an SLM Aminco Bowman Series 2 Luminescence Spectrometer. All activity data were corrected for background rates of H2O2 release determined in complete assay mixtures supplemented with 200 μM BAPN, an irreversible inhibitor of LO. In FIG. 4, solid curves represent the time course of H2O2 release at 55° C. in the reaction of 0.16 μM LO with 0.23 (a), 0.45 (b) and 0.9 (c) μM FGF2, respectively. Dotted curve (d) represents the time course of H2O2 release in the reaction of 0.16 μM LO with 0.9 μM FGF2 at 37° C. The same data were obtained from three separate experiments.
Using the fluorometric assay (Trackman et al., 1981) to monitor LO-dependent H2O2 release in vitro, the substrate potential of other growth factors was also assessed. Major members of the FGF family tested included FGF 1, 4, 5, 6, 7 and EGF (note: All factors are human recombinant forms purchased from R & D Systems, Inc., Minneapolis, Minn.).
A human recombinant disulfide-linked dimer of VEGF165 (MW: 42 kDa)(R & D Systems) as a sole substrate was tested by using the standard in vitro LO catalysis assays as described above for FIG. 4 (Trackman et al., 1981). Curves represent the time course of H2O2 release at 55° C. (a) or 37° C. (b) in the reaction of 0.10 μM LO with 0.45 μM VEGF165. All activity data were corrected for background rates of H2O2 release determined in complete assay mixtures supplemented with the same amounts of LO preincubated with 100 μM BAPN for 15 min at 37° C. The same data were obtained from three separate experiments.
The standard in vitro LO catalysis assays as described above for FIG. 4 (Trackman et al., 1981) using human recombinant PDGF-AB (R & D Systems) as a sole substrate was tested. […] In FIG. 19, curves represent the time course of H2O2 release at 55° C. (a) and 37° C. (b) in the reaction of 0.11 μM LO with 0.46 μM PDGF-AB, respectively. All activity data were corrected for background rates of H2O2 release determined in complete assay mixtures supplemented with the same amounts of LO preincubated with 100 μM BAPN for 15 minutes at 37° C. The same data were obtained from three separate experiments.
To analyze the substrate potential of Tat, the standard in vitro LO catalysis assays as described in FIG. 4 (Trackman et al., 1981) was performed at the optimum temperature of 55° C. and at the physiological temperature of 37° C. A recombinant Tat with 9 lysines in a total of 86 amino acids was used as a sole substrate. FIG. 12A represents a dose and temperature-dependent response. Curves represent the time course of H2O2 release at 55° C. (solid) or 37° C. (dotted) in the reaction of 0.10 μM LO with 0.22 (a and d), 0.43 (b and e) and 0.85 (c and f) μM Tat, respectively. All activity data were corrected for background rates of H2O2 release determined in complete assay mixtures supplemented with the same amounts of LO preincubated with 100 μM BAPN for 15 min at 37° C. […]

VEC on Matrigel = experiment: Angiogenic response of Tat-stimulated VEC on Matrigel; format: cell-based; conditions: 10 ng/ml Tat, 1 h preincubation and 3 h Tat exposure
Procedure: VEC grown on Matrigel, a solid gel of basement membrane proteins, rapidly align and form capillary-like structures providing a convenient in vitro model for angiogenesis studies (Albini et al., 1995; Grant et al.). Tat has been reported to enhance this in vitro morphogenesis of VEC consistent with its angiogenic property (Albini et al., 1995).
Cells (3×10^5) were plated on Matrigel-coated dishes. After 1 h incubation, various reagents were added to each culture. […] The following represents FIG. 15 phase-contrast microscopy: A, control; B, 10 ng ml^−1 Tat; C, 10 ng ml^−1 Tat+10 nM LO; D, 10 ng ml^−1 Tat+10 nM LO that was preincubated with 100 μM BAPN for 15 min at 370; E, 100 μM BAPN, alone, and F, 10 nM LO, alone.

[1] = tested on: porcine pulmonary arterial vascular endothelial cells (VEC); experiment: Growth of Tat-stimulated vascular endothelial cells (cell counting, phase-contrast microscopy); format: cell-based; conditions: 3 days, 5% FBS/M199
Procedure: Stimulation of cell proliferation of porcine pulmonary arterial vascular endothelial cells (VEC) was tested with LO-oxidized Tat. VEC (2×10^4) were plated and incubated overnight in 35 mm-dishes containing 2 ml 15% FBS/M199 medium, and then refed with 5% FBS/M199 with different treatment regimens as shown in A, B and C of FIG. 13. FIG. 13A represents a dose response of Tat-stimulated cell growth. Media were supplemented with Tat at the indicated doses and cells were incubated for additional 3 days. Cultures were refed once during the incubation period with fresh media supplemented with Tat at indicated doses. Cells were harvested by trypsinization and counted with a hemacytometer. FIG. 13B represents the LO inhibition of Tat-stimulated cell growth. FIG. 13C represents the effects of inactivation of LO by BAPN on Tat-stimulated cell growth. LO: 3 or 10 nM, Tat: 10 ng ml^−1, BAPN: 100 μM. Data represent the means (±sd) of three separate experiments each assessed with triplicate dishes.
Numerical and morphological alterations in Tat-stimulated VEC cells treated with LO were observed under phase-contrast microscopy (25'). Cells were cultured as described in FIG. 13 and treated with additives as indicated below. The following represents FIG. 14 phase contrast microscopy: A, control; B, 10 ng ml^−1Tat; C, 10 ng ml^−1 Tat+3 nM LO; D, 10 ng ml^−1 Tat+3 nM LO that was preincubated with 100 μM BAPN for 15 min at 370; E, 100 μM BAPN, alone, and F, 3 nM LO, alone.

With “Tat: recombinant HIV-1 Tat with 9 lysines in a total of 86 amino acids” as the substance, how does the “maximum release of H2O2 per mole of Tat” value (lysyl oxidase (LO); 37° C., 0.1 μM LO, 0.22 μM Tat) read?
The value was 4.85 moles of H2O2 per mole of Tat.

What about the “maximum release of H2O2 per mole of Tat” value (lysyl oxidase (LO); 37° C., 0.1 μM LO, 0.43 μM Tat) of the same substance?
Its value is 4.75 moles of H2O2 per mole of Tat.

And the “maximum release of H2O2 per mole of Tat” value (lysyl oxidase (LO); 37° C., 0.1 μM LO, 0.85 μM Tat)?
The value was 4.80 moles of H2O2 per mole of Tat.

What about the “H2O2 released per mole of Tat, time course” value (lysyl oxidase (LO); 37° C., 0.1 μM LO, 20 min) of the same substance?
Its value is 4.05±0.05 moles of H2O2 released per mole of Tat.

And the “H2O2 released per mole of Tat, time course” value (lysyl oxidase (LO); 37° C., 0.1 μM LO, 30 min)?
The value was 4.80±0.04 moles of H2O2 released per mole of Tat.

What about the “maximum release of H2O2 per mole of Tat, average” value (lysyl oxidase (LO); 37° C., 0.1 μM LO, average over 0.22, 0.43 and 0.85 μM Tat) of the same substance?
The value was 4.80±0.05 moles of H2O2 per mole of Tat.

What about the “molar ratio of H2O2 released per mole of Tat at the plateau” value (lysyl oxidase (LO); 55° C., 0.1 μM LO, 0.22 μM Tat) of the same substance?
Its value is 8.42.

What about the “molar ratio of H2O2 released per mole of Tat at the plateau” value (lysyl oxidase (LO); 55° C., 0.1 μM LO, 0.43 μM Tat) of the same substance?
Its value is 8.88.

And the “molar ratio of H2O2 released per mole of Tat at the plateau” value (lysyl oxidase (LO); 55° C., 0.1 μM LO, 0.85 μM Tat)?
Its value is 9.31.

And the “molar ratio of H2O2 released per mole of Tat, mean±standard deviation” value (lysyl oxidase (LO); 55° C., 0.1 μM LO, mean over 0.22, 0.43 and 0.85 μM Tat)?
Its value is 8.87±0.45.

What about the “substrate of LO (in words)” value (lysyl oxidase (LO); factor as sole substrate, LO-dependent H2O2 release in vitro) of the same substance?
The value was “excellent substrate of LO”.

And the “formation of capillary like structures” value (VEC on Matrigel)?
The value was “facilitated the formation of capillary like structures”.

What about the “dose of maximum stimulation of cell proliferation” value [1] of the same substance?
Its value is 10 ng/mL.
